In paper PMC3773880 (Biochimica et biophysica acta, 2013):

Columns and labels:
[1] = biological target: T1, low molecular weight gingipain R (RgpB) (Porphyromonas gingivalis, UniProt P95493 230-664); assay: cell-based or functional assay
[2] = biological target: T1, low molecular weight gingipain R (RgpB); assay: cell-based or functional assay; remark: listed apart in the source
[3] = biological target: membrane-type RgpB (mt-RgpB), glycosylated (Porphyromonas gingivalis, UniProt P95493 230-736, heavily glycosylated); assay: cell-based or functional assay
gingipain K (Kgp) = gingipain K (Kgp) (Porphyromonas gingivalis); assay: enzyme inhibition kinetics
[4] = biological target: T1, low molecular weight gingipain R (RgpB); assay: SEC
[5] = biological target: T1, low molecular weight gingipain R (RgpB); assay: enzyme inhibition kinetics
[6] = biological target: T1, low molecular weight gingipain R (RgpB); assay: enzyme inhibition kinetics; remark: listed apart in the source

B1: PD_(RgpB), recombinant N-terminal prodomain of RgpB (domain or fragment)
chain: GPLGSQPAERGRNPQVRLLSAEQSMSKVQFRMDNLQFTGVQTSKGVAQVPTFTEGVNISEKGTPILPILSRSLAVSETRAMKVEVVSSKFIEKKDVLIAPSKGVISRAENPDQIPYVYGQSYNEDKFFPGEIATLSDPFILRDVRGQVVNFAPLQYNPVTKTLRIYTEIVVAVSETAEAGQNTISLVKNSTFTGFEDIYKSVFMNYEATR
IC50 of inhibition of amidolytic activity (L-BAPNA), 10 nM enzyme [1]: 23.7 nM | IC50 of inhibition of aminopeptidase activity (H-Arg-AMC), 10 nM enzyme [1]: 7.2 nM | IC50 of inhibition of proteolytic activity (Azocoll), 10 nM enzyme [1]: 7.1 nM | IC50 of inhibition of Rgp activity (L-BAPNA): RgpB (purified non-glycosylated) [2]: 15 nM | IC50 of inhibition of Rgp activity (L-BAPNA): mt-RgpB (purified) [3]: 188 nM | Ki (gingipain K (Kgp)): > 5000 nM | stoichiometry N [4]: 1 | koff [5]: 3.1e-05 s⁻¹ | kon [5]: 5020 M⁻¹ s⁻¹ | Ki [6]: 6.2 nM

B2: PD_(RgpA), recombinant N-terminal prodomain of RgpA (domain or fragment)
chain: QQTELGRNPNVRLLESTQQSVTKVQFRMDNLKFTEVQTPKGMAQVPTYTEGVNLSEKGMPTLPILSRSLAVSDTREMKVEVVSSKFIEKKNVLIAPSKGMIMRNEDPKKIPYVYGKSYSQNKFFPGEIATLDDPFILRDVRGQVVNFAPLQYNPVTKTLRIYTEITVAVSETSEQGKNILNKKGTFAGFEDTYKRMFMNYEPGR
IC50 of inhibition of amidolytic activity (L-BAPNA), 10 nM enzyme [1]: 15.7 nM | IC50 of inhibition of aminopeptidase activity (H-Arg-AMC), 10 nM enzyme [1]: 6.9 nM | IC50 of inhibition of proteolytic activity (Azocoll), 10 nM enzyme [1]: 7.3 nM | Ki (gingipain K (Kgp)): > 5000 nM | koff [5]: 1.3e-05 s⁻¹ | kon [5]: 6070 M⁻¹ s⁻¹ | Ki [6]: 2.1 nM
